# According to patent US20160194394A1 (GOVERNING COUNCIL OF THE UNIVERSITY OF TORONTO, published 2016):
# Like-named read-outs stand apart in the source and are kept apart here.
# Assays:
# [1] = target: T1, recombinant Frizzled receptor 7 (FZD7) cysteine-rich domain (CRD) fused to the Fc region of human IgG (human, UniProt O75084 33-185); test: ELISA, 1ug/ml (20nM) Fab [cont'd]
# Summary of the method: (§1)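 Plates coated with 2 ug/ml FZD7-Fc or Fc protein were probed with bacterially expressed purified Fabs for 1 h at room temperature in 0.5% BSA/0.05% Tween20/PBS. Bound Fab detected with anti-FLAG-HRP for 45 min, developed with TMB and acid stop, and read as absorbance at 450 nm; n.t. = not tested.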
# Fc control protein [2] = target: T2, Fc control protein; test: ELISA, 1ug/ml (20nM) Fab [cont'd]
# T2 construct: also called Fc protein; control Fc protein
# Summary of the method: as §1
# [3] = target: T1, recombinant Frizzled receptor 7 (FZD7) …; test: ELISA, 10ug/ml (200nM) Fab [cont'd]
# Summary of the method: as §1
# Fc control protein [4] = target: T2, Fc control protein; test: ELISA, 10ug/ml (200nM) Fab [cont'd]
# Summary of the method: as §1
# [5] = target: T3, FZD7 receptor expressed on cells (full-length) (UniProt O75084 33-574, limits assumed); test: flow cytometry, 200 nM Fab, MDA MB 231 [cont'd]
# T3 construct: whole, on cells; MDA MB 231 cells may carry other Frizzled receptors too; also called full-length FZD7 receptor; endogenous receptor on MDA MB 231 cells
# Summary of the method: (§2)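 EDTA-harvested MDA MB 231 cells, either FZD7-overexpressing or with endogenous receptor, were blocked in 2% FBS/PBS and stained with Fab for 30 min on ice. Detection used anti-F(ab′)₂-APC (1:1000, 15 min on ice), then 1% paraformaldehyde fixation and flow cytometry. Values are percent of cells in positive gates.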
# [6] = target: T3, FZD7 receptor expressed on cells …; test: flow cytometry, 200 nM Fab, FZD7 over-expression line (MDA MB 231) [cont'd]
# Summary of the method: as §2
# human Fzd1-Fc = target: T4, human Fzd1-Fc; test: SPR
# T4 construct: also called FZD1 ECD; Fzd1 CRD-Fc fusion protein (R&D systems); not shown: exact vendor limits of the CRD construct
# T4 sequence (chain, as listed by the source limits assumed): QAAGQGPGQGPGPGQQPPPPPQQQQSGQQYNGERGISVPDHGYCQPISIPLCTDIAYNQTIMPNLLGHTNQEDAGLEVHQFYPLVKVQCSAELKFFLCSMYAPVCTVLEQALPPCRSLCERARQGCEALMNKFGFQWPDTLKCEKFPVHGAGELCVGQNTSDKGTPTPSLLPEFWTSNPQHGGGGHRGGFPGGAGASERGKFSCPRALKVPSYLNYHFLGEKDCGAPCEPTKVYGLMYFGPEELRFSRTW
# mouse Fzd2-Fc = target: T5, mouse Fzd2-Fc; test: SPR
# T5 construct: also called mFZD2 ECD; Fzd2 CRD-Fc fusion protein (R&D systems); not shown: exact vendor limits of the CRD construct
# T5 sequence (chain, as listed by the source limits assumed): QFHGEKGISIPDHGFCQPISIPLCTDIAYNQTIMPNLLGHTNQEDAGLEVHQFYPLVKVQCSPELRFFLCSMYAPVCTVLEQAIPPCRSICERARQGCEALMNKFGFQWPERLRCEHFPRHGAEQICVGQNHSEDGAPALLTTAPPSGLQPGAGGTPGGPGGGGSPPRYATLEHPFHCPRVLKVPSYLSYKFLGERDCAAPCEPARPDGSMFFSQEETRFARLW
# [7] = target: T6, recombinant Frizzled receptor 7 (FZD7) cysteine-rich domain (CRD) fused to the Fc region of human IgG (human, UniProt O75084 33-185); test: SPR
# [8] = target: T6, recombinant Frizzled receptor 7 (FZD7) …; test: SPR; remark: listed apart in the source
# [9] = target: T3, FZD7 receptor expressed on cells …; test: cell-based or functional assay
# [10] = target: T6, recombinant Frizzled receptor 7 (FZD7) …; test: ELISA, 1ug/ml (20nM) Fab [cont'd]; remark: listed apart in the source
# Summary of the method: as §1
# [11] = target: T6, recombinant Frizzled receptor 7 (FZD7) …; test: ELISA, 10ug/ml (200nM) Fab [cont'd]; remark: listed apart in the source
# Summary of the method: as §1
# [12] = target: T6, recombinant Frizzled receptor 7 (FZD7) …; test: competitive ELISA, detected phage-Fab A1
# [13] = target: T6, recombinant Frizzled receptor 7 (FZD7) …; test: competitive ELISA, detected phage-Fab E4
# [14] = target: T6, recombinant Frizzled receptor 7 (FZD7) …; test: competitive ELISA, detected phage-Fab E8
# [15] = target: T6, recombinant Frizzled receptor 7 (FZD7) …; test: competitive ELISA, detected phage-Fab G2
# [16] = target: T6, recombinant Frizzled receptor 7 (FZD7) …; test: competitive ELISA, detected phage-Fab G6
# [17] = target: T6, recombinant Frizzled receptor 7 (FZD7) …; test: competitive ELISA, detected phage-Fab H1
# [18] = target: T6, recombinant Frizzled receptor 7 (FZD7) …; test: competitive ELISA, detected phage-Fab H3
# [19] = target: T6, recombinant Frizzled receptor 7 (FZD7) …; test: competitive ELISA, detected phage-Fab D10
# [20] = target: T6, recombinant Frizzled receptor 7 (FZD7) …; test: competitive ELISA, detected phage-Fab H10
OD 450 [1],OD 450 (Fc control protein [2]),OD 450 [3],OD 450 (Fc control protein [4]),% population within the positive gate [5] [%],% population within the positive gate [6] [%],Binder,other results
3.12,0.06,3.21,0.16,6.1,84.7,"G9 (Fab, selection round 3; also called Fzd7-R3-G9) light: DIQMTQSPSSLSASVGDRVTITCRASQSVSSAVAWYQQKPGKAPKLLIYSASSLYSGVPSRFSGSRSGTDFTLTISSLQPEDFATYYCQQYYYSSPITFGQGTKVEIKRTVAAPSVFIFPPSDSQLKSGTASVVCLLNNFYPREAKVQWKVDNALQSGNSQESVTEQDSKDSTYSLSSTLTLSKADYEKHKVYACEVTHQGLSSPVTKSFNRGECGGS heavy: EVQLVESGGGLVQPGGSLRLSCAASGFNISYYYIHWVRQAPGKGLEWVAYISPSSGYTSYADSVKGRFTISADTSKNTAYLQMNSLRAEDTAVYYCARGYPVYSWVWSFGAFDYWGQGTLVTVSSASTKGPSVFPLAPSSKSTSGGTAALGCLVKDYFPEPVTVSWNSGALTSGVHTFPAVLQSSGLYSLSSVVTVPSSSLGTQTYICNVNHKPSNTKVDKKVEPKSC",–
3.22,0.05,3.26,0.06,46.7,91.5,"B9 (Fab, selection round 3; also called Fzd7-R3-B9) light: DIQMTQSPSSLSASVGDRVTITCRASQSVSSAVAWYQQKPGKAPKLLIYSASSLYSGVPSRFSGSRSGTDFTLTISSLQPEDFATYYCQQWWASGVGPFTFGQGTKVEIKRTVAAPSVFIFPPSDSQLKSGTASVVCLLNNFYPREAKVQWKVDNALQSGNSQESVTEQDSKDSTYSLSSTLTLSKADYEKHKVYACEVTHQGLSSPVTKSFNRGECGGS heavy: EVQLVESGGGLVQPGGSLRLSCAASGFNLYSSSIHWVRQAPGKGLEWVAYISSYYSSTYYADSVKGRFTISADTSKNTAYLQMNSLRAEDTAVYYCARPAMDYWGQGTLVTVSSASTKGPSVFPLAPSSKSTSGGTAALGCLVKDYFPEPVTVSWNSGALTSGVHTFPAVLQSSGLYSLSSVVTVPSSSLGTQTYICNVNHKPSNTKVDKKVEPKSC",–
3.05,0.06,3.12,0.09,0.7,80.9,"D9 (Fab, selection round 3; also called Fzd7-R3-D9) light: DIQMTQSPSSLSASVGDRVTITCRASQSVSSAVAWYQQKPGKAPKLLIYSASSLYSGVPSRFSGSRSGTDFTLTISSLQPEDFATYYCQQSSYSLITFGQGTKVEIKRTVAAPSVFIFPPSDSQLKSGTASVVCLLNNFYPREAKVQWKVDNALQSGNSQESVTEQDSKDSTYSLSSTLTLSKADYEKHKVYACEVTHQGLSSPVTKSFNRGECGGS heavy: EVQLVESGGGLVQPGGSLRLSCAASGFNLSYSSMHWVRQAPGKGLEWVASIYSSYSSTSYADSVKGRFTISADTSKNTAYLQMNSLRAEDTAVYYCARGAGYYWWHYYYVHGAMDYWGQGTLVTVSSASTKGPSVFPLAPSSKSTSGGTAALGCLVKDYFPEPVTVSWNSGALTSGVHTFPAVLQSSGLYSLSSVVTVPSSSLGTQTYICNVNHKPSNTKVDKKVEPKSC",–
–,–,–,–,99,94.7,Fab H1 (Fab) chain 1: EVQLVESGGGLVQPGGSLRLSCAASGFNISSSYIHWVRQAPGKGLEWVAYIYSSYGSTYYADSVKGRFTISADTSKNTAYLQMNSLRAEDTAVYYCARASWYALDYWGQGTLVTVSSASTKGPSVFPLAPSSKSTSGGTAALGCLVKDYFPEPVTVSWNSGALTSGVHTFPAVLQSSGLYSLSSVVTVPSSSLGTQTYICNVNHKPSNTKVDKKVEPKSC chain 2: DIQMTQSPSSLSASVGDRVTITCRASQSVSSAVAWYQQKPGKAPKLLIYSASSLYSGVPSRFSGSRSGTDFTLTISSLQPEDFATYYCQQYWYGVAPITFGQGTKVEIKRTVAAPSVFIFPPSDSQLKSGTASVVCLLNNFYPREAKVQWKVDNALQSGNSQESVTEQDSKDSTYSLSSTLTLSKADYEKHKVYACEVTHQGLSSPVTKSFNRGECGGS,"Kd (human Fzd1-Fc): 0.64 nM; Kd (mouse Fzd2-Fc): 0.57 nM; Kd [7]: 0.54 nM; Kd [8]: 0.537 nM; koff [8]: 0.000457 s⁻¹; kon [8]: 852000 M⁻¹ s⁻¹; decrease in Wnt 3a-induced transcriptional activity (TOP-FLASH luciferase reporter in MDA MB 231 cells, 400 nM Fab) [9]: > 70%; OD 450 [10]: 3.2; OD 450 [11]: 3.19; % of Fab phage in presence of 750 nM Fab [12]: 4.5%; % of Fab phage in presence of 750 nM Fab [13]: 12%; % of Fab phage in presence of 750 nM Fab [14]: 6.7%; % of Fab phage in presence of 750 nM Fab [15]: 4.5%; % of Fab phage in presence of 750 nM Fab [16]: 10.4%; % of Fab phage in presence of 750 nM Fab [17]: 8.5%; % of Fab phage in presence of 750 nM Fab [18]: 18.3%; % of Fab phage in presence of 750 nM Fab [19]: 4.7%; % of Fab phage in presence of 750 nM Fab [20]: 4.3%"
